In general, stoichiometry N refers to the number of molecules, sites or subunits per partner or assembly.

Experimental findings from publication PMC9645710, “Cryo-EM structures of peripherin-2 and ROM1 suggest multiple roles in photoreceptor membrane morphogenesis” (Science Advances, 2022) are described below.

The target of data set [1] is T1, ROM1 (human rod outer segment membrane protein 1, N-terminal Strep3-GFP tag) (human, UniProt Q03395 1-351).
T1 construct: rod outer segment membrane protein 1 (ROM1), human, full length; codon-optimized cDNA from GeneArt in a pUPE vector; Residues 323 to 351 were not modelled in the structure; also called retinal outer segment protein 1; source: HEK293T, transiently transfected together with PRPH2^C150S, solubilized in DDM/CHS, purified (Strep-Tactin, SEC); not shown: Strep3, N-terminal, kept
As to the kind of experiment: cryo-EM structure; PRPH2^C150S-ROM1 purified in 25 mM tris-HCl, 150 mM NaCl, pH 7.5, 0.025% DDM/CHS, incubated with an excess of Nanobody19, ~9 mg/ml; single-particle map at 3.7 A. The note with it: both partners purified.

Data set [2] concerns the molecule itself. As to the kind of experiment: SEC; PRPH2 and ROM1 (wild type or cysteine mutants) expressed in HEK293T, solubilized in DDM/CHS; Superdex 200 Increase 10/300 GL, 25 mM tris-HCl, 150 mM NaCl, pH 7.5, 0.025% DDM/CHS; no reducing agent. On the technique in general: Size exclusion chromatography separates by hydrodynamic size, large species first.
Data set [3] deals with T2, ROM1 (human rod outer segment membrane protein 1, wild type, N-terminal Strep3 tag) (human, UniProt Q03395 1-351).
T2 construct: rod outer segment membrane protein 1 (ROM1), human, full length; codon-optimized cDNA from GeneArt in a pUPE vector; source: HEK293T, transiently transfected together with PRPH2, solubilized in DDM/CHS, purified (Strep-Tactin, SEC); not shown: Strep3, N-terminal, kept
As to the kind of experiment: cryo-EM structure; wild-type PRPH2-ROM1, one SEC fraction of heterogeneous complexes in 0.025% DDM/CHS, ~3.6 mg/ml; maps of tetramer, hexamer and octamer at ~7-8 A with the heterodimer docked in; the sizes count chains of PRPH2 and ROM1 together. The note with it: both partners purified.

Data set [4] has as its target T3, PRPH2^C150S-ROM1 heterodimer (human, UniProt P23942;Q03395, C150S, N-acetylglucosamine on Asn229 (density in the map); possible glycosylation at Asn53).
T3 construct: peripherin-2 (PRPH2), human, full length; as m1; rod outer segment membrane protein 1 (ROM1), human, full length; as m2; Formed and purified before Nanobody19 was added; also called PRPH2^C150S-ROM1 complex; PRPH2-ROM1 heterodimer; source: HEK293T, transiently co-transfected, solubilized in DDM/CHS, purified (Strep-Tactin, SEC); not shown: Strep3, N-terminal, kept; copies: 1 + 1
Kind of data set: cryo-EM structure; PRPH2^C150S-ROM1 purified in 25 mM tris-HCl, 150 mM NaCl, pH 7.5, 0.025% DDM/CHS, incubated with an excess of Nanobody19, ~9 mg/ml; single-particle map at 3.7 A. Conditions: both partners purified.

Data set [5] deals with T4, ROM1 (human rod outer segment membrane protein 1, N-terminal Strep3-GFP tag) (human, UniProt Q03395).
T4 construct: rod outer segment membrane protein 1 (ROM1), human, full length; codon-optimized cDNA from GeneArt in a pUPE vector; Residues 323 to 351 were not modelled in the structure; also called retinal outer segment protein 1; source: HEK293T, transiently transfected together with PRPH2^C150S, solubilized in DDM/CHS, purified (Strep-Tactin, SEC); not shown: Strep3, N-terminal, kept
The data set is described as above. The note with it: both partners purified.

T3 sequence (Q03395 whole entry, stated change not applied, one chain of several): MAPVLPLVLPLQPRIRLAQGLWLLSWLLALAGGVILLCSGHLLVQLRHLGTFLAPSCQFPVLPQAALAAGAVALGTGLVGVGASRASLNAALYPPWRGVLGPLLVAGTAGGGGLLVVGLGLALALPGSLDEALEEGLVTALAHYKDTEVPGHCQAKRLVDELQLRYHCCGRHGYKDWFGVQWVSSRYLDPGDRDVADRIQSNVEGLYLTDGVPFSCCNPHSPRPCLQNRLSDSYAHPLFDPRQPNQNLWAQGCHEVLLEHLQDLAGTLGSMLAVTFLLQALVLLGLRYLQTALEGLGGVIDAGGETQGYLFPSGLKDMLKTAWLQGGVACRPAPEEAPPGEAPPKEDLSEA
T2 sequence (Q03395 whole entry): as the sequence (Q03395 whole entry, stated change not applied, one chain of several) above

B1: PRPH2^C150S (human peripherin-2 with mutation C150S, N-terminal 6x-His tag) (natural protein, UniProt P23942 1-346, looked up)
chain: MALLKVKFDQKKRVKLAQGLWLMNWFSVLAGIIIFSLGLFLKIELRKRSDVMNNSESHFVPNSLIGMGVLSCVFNSLAGKICYDALDPAKYARWKPWLKPYLAICVLFNIILFLVALCCFLLRGSLENTLGQGLKNGMKYYRDTDTPGRSFMKKTIDMLQIEFKCCGNNGFRDWFEIQWISNRYLDFSSKEVKDRIKSNVDGRYLVDGVPFSCCNPSSPRPCIQYQITNNSAHYSYDHQTEELNLWVRGCRAALLSYYSSLMNSMGVVTLLIWLFEVTITIGLRYLQTSLDGVSNPEESESESQGWLLERSVPETWKAFLESVKKLGKGNQVEAEGADAGQAPEAG
modifications: N-acetylglucosamine on Asn229 (density in the map); possible glycosylation at Asn53
notes: peripherin-2 (PRPH2), human, full length; codon-optimized cDNA from GeneArt in a pUPE vector; Residues 322 to 346 were not modelled in the structure; source: HEK293T, transiently transfected together with ROM1, solubilized in DDM/CHS, purified (Strep-Tactin through ROM1, SEC)
For the molecule B1, in data set [1], the binding result is “binds”.

B2: PRPH2 (human peripherin-2, wild type, N-terminal 6x-His tag) (natural protein, UniProt P23942 1-346, looked up)
chain: MALLKVKFDQKKRVKLAQGLWLMNWFSVLAGIIIFSLGLFLKIELRKRSDVMNNSESHFVPNSLIGMGVLSCVFNSLAGKICYDALDPAKYARWKPWLKPYLAICVLFNIILFLVALCCFLLRGSLENTLGQGLKNGMKYYRDTDTPGRCFMKKTIDMLQIEFKCCGNNGFRDWFEIQWISNRYLDFSSKEVKDRIKSNVDGRYLVDGVPFSCCNPSSPRPCIQYQITNNSAHYSYDHQTEELNLWVRGCRAALLSYYSSLMNSMGVVTLLIWLFEVTITIGLRYLQTSLDGVSNPEESESESQGWLLERSVPETWKAFLESVKKLGKGNQVEAEGADAGQAPEAG
notes: peripherin-2 (PRPH2), human, full length; codon-optimized cDNA from GeneArt in a pUPE vector; The tag is told for the oligomer preparation; source: HEK293T, transiently transfected together with ROM1, solubilized in DDM/CHS, purified (Strep-Tactin through ROM1, SEC)
As to B2, the “stoichiometry N” value in data set [2] was found to be 2. Also, in data set [3], the binding result is listed as “binds”.

B3: Nanobody19 (VHH)
VHH: QVQLQESGGGLVQAGGSLRLSCAASTRTTSRYTVGWFCQAPGKEREFVAAVHWSGGSTWYADSVKGRFTISRDNAKNTVYLQMNSLKQEDTAVYYCAAAEPRRYSYYMRPDEYNYWGQGTQVTVSS
notes: modelled in the deposited structure PDB 7ZW1; also called Nb19; source: E. coli BL21(DE3), purified (Ni-NTA, SEC)
On to B3, for which, in data set [4], the “stoichiometry N” value came to 1. For the same molecule, in data set [5], the binding result was “binds”.
